Laboratory results from IntAct's records for PubMed 15483055.

Target: pakc_dicdi pakC (UniProt Q55GV3)
Sequence (Q55GV3 whole entry): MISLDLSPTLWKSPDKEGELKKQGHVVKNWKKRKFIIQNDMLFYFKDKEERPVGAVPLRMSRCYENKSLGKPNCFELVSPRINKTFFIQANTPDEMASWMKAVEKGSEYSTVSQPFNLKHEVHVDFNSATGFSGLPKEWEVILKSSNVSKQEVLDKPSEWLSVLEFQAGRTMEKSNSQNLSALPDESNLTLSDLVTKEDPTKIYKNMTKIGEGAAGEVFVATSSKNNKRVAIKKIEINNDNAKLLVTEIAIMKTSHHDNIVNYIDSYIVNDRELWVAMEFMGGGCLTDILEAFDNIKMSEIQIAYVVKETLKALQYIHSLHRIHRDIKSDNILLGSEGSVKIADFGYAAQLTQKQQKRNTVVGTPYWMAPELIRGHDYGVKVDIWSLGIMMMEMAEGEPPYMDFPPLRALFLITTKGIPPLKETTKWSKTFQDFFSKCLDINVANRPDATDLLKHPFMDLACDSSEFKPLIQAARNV

Rho-related protein racB (Dictyostelium discoideum (Slime mold)), P34148 T17N, sequence (P34148 whole entry T17N): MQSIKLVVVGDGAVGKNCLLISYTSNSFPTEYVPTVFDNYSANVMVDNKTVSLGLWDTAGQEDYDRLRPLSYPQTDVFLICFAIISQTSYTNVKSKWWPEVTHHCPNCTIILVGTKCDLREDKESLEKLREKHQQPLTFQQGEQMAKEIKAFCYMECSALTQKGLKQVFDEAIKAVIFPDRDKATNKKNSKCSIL

effect of a mutation on the interaction: decreasing interaction
Substance: Rho-related protein racB (Dictyostelium discoideum (Slime mold)), P34148 T17N
